Experimental data: patent publication US12098378B2, “Anti-fungal polypeptides” (priority 2020, dated 2024)

What was measured:
[1] = tested on: Podosphaera aphanis; test: Control of powdery mildew on strawberry in greenhouse; assay type: in vivo; conditions: 250, 500, 750 g ai/ha, 6 applications
Method: Four replicates of 20 strawberry plants (3 m^2 per plot) were treated with 0.576 or 0.72 l of spray solution, corresponding with a spray volume of […], according to local practice. The spray mix contained a concentration of active ingredient as described in Table 6. Six applications were performed spaced 7 days apart. No artificial infection was performed and first spray was placed before first symptoms appeared. The efficacy of 10G11 was compared to that of a non-treated control and the chemical reference Topas 2.5 WG (Penconazole). In addition, a chemical rotation of Ganzo (Myclobutanil), Topas 2.5 WG (Penconazole) and Signum (Boscalid+Pyraclostrobin) was evaluated. A seventh treatment replaced part of the chemicals in this chemical rotation by 10G11 as described in Table 6.
Efficacy assessments were performed on 20 leaves per plot, assessing the percentage of leaf area affected (PESSEV) and the percentage of leaves affected (PESINC) on the whole plot. Assessments were performed on a weekly basis and continued until 2 weeks after the last application.

[2] = tested on: Fraction 3; test: ELISA with biotinylated liposomes on streptavidin-coated plates; assay type: binding, Botrytis cinerea
Source text: Dissociation constants (Kd) can be estimated based on the results of an ELISA. In equilibrium analysis as in ELISA, the Kd can be calculated from the equilibrium binding response. Where the ELISA plate wells are coated with a target antigen, and where the target antigen may be a lipid-containing fraction of the membrane of Botrytis cinerea, such a method may further use a range of concentrations of a polypeptide binding the target antigen. Where the ELISA generally provides a quantitative adsorption measure for each polypeptide concentration representing binding of the polypeptide to the target antigen, the range of concentration of a polypeptide may for example be 0.5, 1, 2.5, 5, and 10 μM. The most suitable range of concentrations used can vary depending on the affinity of the polypeptide to the target antigen. The corresponding absorption values as determined by ELISA may result in a sigmoid curve when absorption values are plotted against the logarithmic conversion of the polypeptide concentrations. This sigmoid curve may serve to define an IC50 value. Where this IC50 is the concentration of polypeptide where the corresponding absorption value is 50% of the saturated value as estimated by the maximum of the sigmoidal function, the Kd can be estimated by 1/Ka were the association constant (Ka) can be estimated as 1/IC50. Thus Kd corresponds to the analyte concentration that reaches equilibrium at 50% binding saturation. Commonly computation methods can be used for these calculations. For example, this can be done using GraphPad. In some embodiments, the Kd may be determined by surface plasmon resonance (SPR).
The above-mentioned method for the formation of liposomes (Example 12) was modified with the addition of a biotinylated lipid (12:0 Biotinyl M G (1-(12-N-biotin)aminododecanoyl-rac-glycerol), Sigma Aldrich), to allow for use of these liposomes for ELISA using streptavidin-coated plates (Pierce™ Streptavidin Coated High Capacity Plates, Clear, 96-Well, blocked with SuperBlock™ Buffer, Thermo Fisher Scientific).
To estimate the dissociation constant Kd value of 10G11 binding to Fraction 3, the ELISA set-up with biotinylated liposomes from Fraction 3 as described in Example 13 was used. 10G11 polypeptide was added in the following concentrations: 0.5, 1, 2.5, 5, and 10 μM, prepared by a serial dilution in phosphate buffer. […] This plot was used to estimate the Kd dissociation constant using GraphPad. Where non-linear regression fitting was used.

[3] = tested on: liposomes from Fraction 3 of Botrytis cinerea lipid extract; test: Interaction with DPH-containing liposomes (fluorescence); assay type: binding; conditions: Fraction 3 liposomes (FIG. 11)
Method: (§1) In order to investigate the putative interaction partner of 10G11 and its variants, lipids were extracted from Botrytis cinerea hyphae as described in Example 1. For the further fractionation of the total lipid extract thin-layer chromatography was used (TLC; Skipski et al (1965), Biochimica et Biophysica Acta, 106(2): 386-396). The extract was spotted on a silica gel glass plate and run in a chromatography tank filled with 100 mL of the chloroform/methanol mixture (85/15, v/v). Lipid bands separated by TLC were stained with alpha-naphthol enabling visual detection of lipids. Four fractions were identified (FIG. 10): Fraction 1, the fraction of polar lipids; Fraction 2, with a Retention Factor (Rf) similar to the glucosylceramide reference standard (GlcCer from Tamogitake), likely to be ceramides; Fraction 3, with a slightly higher Rf than the reference standard; and Fraction 4, the non-polar phospholipids (PLs). For obtaining sufficient material from the separate Fractions, normal-phase flash chromatography can be used (Gorden, M. H. (2015). Encyclopedia of Analytical Science (Second edition), Elsevier). The TLE was therefore dissolved in CH2Cl2 by addition of a few drops of MeOH and loaded onto a 4 g normal phase flash cartridge with 15 μm particles. The column was run with CH2Cl2/MeOH (85/15, v/v) as the eluent. Finally, Fractions were filtered through a 0.45 μm syringe filter (nylon membrane), and dried. Hereafter, liposomes from the true lipid extract and its individual fractions were prepared via the thin-film hydration method with the addition of 1,6-diphenyl-1,3,5-hexatriene (DPH) (Trucillo et al, 2020. Processes 8(9):1022; Zhang, 2017. Liposomes 1522:1 7-22). […] Any disruption of the lipid membranes would lead to a decrease in fluorescent signal. Hereafter, the interaction of 10G11 with these liposomes was tested.

[4] = tested on: liposomes from total lipid extract (TLE) of Botrytis cinerea hyphae; test: as above; assay type: binding
Method: as §1

[5] = tested on: liposomes from Fraction 4, the non-polar phospholipids (PLs), of Botrytis cinerea lipid extract; test: as above; assay type: binding; conditions: Fraction 4 liposomes (FIG. 11)
Method: as §1

[6] = tested on: Botrytis cinerea R16; test: Prolonged incubation antifungal assay followed over 14 days; assay type: cell-based; conditions: followed over a period of 14 days (FIG. 9)
Method: Two-fold dilutions of purified VHH 10G11Q were prepared in 96-well microtiter plates. To 20 μl of these dilutions and to 20 μl of water as a control, 80 μl of fungal spore suspension (1 E+05 spores/ml in half strength potato dextrose broth (PDB)) were added, starting with a final VHH 10G11Q concentration of 10 μM. […] All tests were performed in at least 2 replicates.

B1: 10G11: VHH polypeptide, SEQ ID NO: 2, begins with a D residue (protein)
VHH: DVQLVESGGGLVQAGGSLRLSCAASRSIFSINAMDWYRQAPGKQREWVAGITRGGTTKYADSVKGRFTISRDNAKKKVYLQMNSLKPEDTAVYYCNVLRGEQPWTRDYWGQGTQVTVSS
**Q.** Which “severity (PESSEV) of powdery mildew on strawberry” value ([1]; until two weeks after the last application (FIG. 24)) does the source give for B1 here?
**A.** clear and dose-related performance

**Q.** What about the “incidence (PESINC) of powdery mildew on strawberry” value ([1]; until two weeks after the last application (FIG. 25)) of the same molecule?
**A.** clear and dose-related performance

**Q.** What about the IC50 ([2]; 0.5, 1, 2.5, 5 and 10 μM polypeptide, non-linear regression fitting in GraphPad (FIG. 29), read-out: IC50 of ELISA absorption plot) of the same molecule?
**A.** 0.76 to 1.55 µM

**Q.** And the Kd ([2]; converted from the ELISA IC50 range (FIG. 29), read-out: dissociation constant Kd, estimate)?
**A.** 0.76 to 1.55 µM

**Q.** What about the “interaction with lipids in liposomes (DPH fluorescence)” value (shortened to “interaction with lipids in liposomes”) [3] of the same molecule?
**A.** interacts

**Q.** What about the “membrane disruption of liposome vesicles” value ([4]; stated generally for the liposomes with which 10G11 interacts (FIG. 11)) of the same molecule?
**A.** breakage of the vesicles

**Q.** What about the “interaction with lipids in liposomes” value ([4]; total lipid extract (TLE) liposomes (FIG. 11)) of the same molecule?
**A.** interacts

**Q.** What about the “interaction with lipids in liposomes” value [5] of the same molecule?
**A.** interacts

**Q.** And the “effect on preventing spore outgrowth” value [6]?
**A.** allowed spore outgrowth to partly reinitiate after 3 days
